Assay results taken from patent publication US20110263454A1, “Methods of Identifying Functional Characteristics of Promoters, Transcription Modifying Proteins and Transcription Modulating Agents” (Salk Institute for Biological Studies, priority 2008, published 2011).

B1: NR4a3: NR4a3 (NR4A3; NOR1), nuclear hormone receptor cDNA driver (protein, UniProt Q92570 1-626, looked up)
Nuclear receptor subfamily 4 …: MPCVQAQYSPSPPGSSYAAQTYSSEYTTEIMNPDYTKLTMDLGSTEITATATTSLPSISTFVEGYSSNYELKPSCVYQMQRPLIKVEEGRAPSYHHHHHHHHHHHHHHQQQHQQPSIPPASSPEDEVLPSTSMYFKQSPPSTPTTPAFPPQAGALWDEALPSAPGCIAPGPLLDPPMKAVPTVAGARFPLFHFKPSPPHPPAPSPAGGHHLGYDPTAAAALSLPLGAAAAAGSQAAALESHPYGLPLAKRAAPLAFPPLGLTPSPTASSLLGESPSLPSPPSRSSSSGEGTCAVCGDNAACQHYGVRTCEGCKGFFKRTVQKNAKYVCLANKNCPVDKRRRNRCQYCRFQKCLSVGMVKEVVRTDSLKGRRGRLPSKPKSPLQQEPSQPSPPSPPICMMNALVRALTDSTPRDLDYSRYCPTDQAAAGTDAEHVQQFYNLLTASIDVSRSWAEKIPGFTDLPKEDQTLLIESAFLELFVLRLSIRSNTAEDKFVFCNGLVLHRLQCLRGFGEWLDSIKDFSLNLQSLNLDIQALACLSALSMITERHGLKEPKRVEELCNKITSSLKDHQSKGQALEPTESKVLGALVELRKICTLGLQRIFYLKLEDLVSPPSIIDKLFLDTLPF
B2: PR: Progesterone Receptor (NR3C3), cDNA driver (protein, UniProt P06401 1-933, looked up)
Progesterone receptor: MTELKAKGPRAPHVAGGPPSPEVGSPLLCRPAAGPFPGSQTSDTLPEVSAIPISLDGLLFPRPCQGQDPSDEKTQDQQSLSDVEGAYSRAEATRGAGGSSSSPPEKDSGLLDSVLDTLLAPSGPGQSQPSPPACEVTSSWCLFGPELPEDPPAAPATQRVLSPLMSRSGCKVGDSSGTAAAHKVLPRGLSPARQLLLPASESPHWSGAPVKPSPQAAAVEVEEEDGSESEESAGPLLKGKPRALGGAAAGGGAAAVPPGAAAGGVALVPKEDSRFSAPRVALVEQDAPMAPGRSPLATTVMDFIHVPILPLNHALLAARTRQLLEDESYDGGAGAASAFAPPRSSPCASSTPVAVGDFPDCAYPPDAEPKDDAYPLYSDFQPPALKIKEEEEGAEASARSPRSYLVAGANPAAFPDFPLGPPPPLPPRATPSRPGEAAVTAAPASASVSSASSSGSTLECILYKAEGAPPQQGPFAPPPCKAPGASGCLLPRDGLPSTSASAAAAGAAPALYPALGLNGLPQLGYQAAVLKEGLPQVYPPYLNYLRPDSEASQSPQYSFESLPQKICLICGDEASGCHYGVLTCGSCKVFFKRAMEGQHNYLCAGRNDCIVDKIRRKNCPACRLRKCCQAGMVLGGRKFKKFNKVRVVRALDAVALPQPVGVPNESQALSQRFTFSPGQDIQLIPPLINLLMSIEPDVIYAGHDNTKPDTSSSLLTSLNQLGERQLLSVVKWSKSLPGFRNLHIDDQITLIQYSWMSLMVFGLGWRSYKHVSGQMLYFAPDLILNEQRMKESSFYSLCLTMWQIPQEFVKLQVSQEEFLCMKVLLLLNTIPLEGLRSQTQFEEMRSSYIRELIKAIGLRQKGVVSSSQRFYQLTKLLDNLHDLVKQLHLYCLNTFIQSRALSVEFPEMMSEVIAAQLPKILAGMVKPLLFHKK
B3: NR4a2: NR4a2 (NR4A2; NURR1), nuclear hormone receptor cDNA driver (protein, UniProt P43354 1-598, looked up)
Nuclear receptor subfamily 4 …: MPCVQAQYGSSPQGASPASQSYSYHSSGEYSSDFLTPEFVKFSMDLTNTEITATTSLPSFSTFMDNYSTGYDVKPPCLYQMPLSGQQSSIKVEDIQMHNYQQHSHLPPQSEEMMPHSGSVYYKPSSPPTPTTPGFQVQHSPMWDDPGSLHNFHQNYVATTHMIEQRKTPVSRLSLFSFKQSPPGTPVSSCQMRFDGPLHVPMNPEPAGSHHVVDGQTFAVPNPIRKPASMGFPGLQIGHASQLLDTQVPSPPSRGSPSNEGLCAVCGDNAACQHYGVRTCEGCKGFFKRTVQKNAKYVCLANKNCPVDKRRRNRCQYCRFQKCLAVGMVKEVVRTDSLKGRRGRLPSKPKSPQEPSPPSPPVSLISALVRAHVDSNPAMTSLDYSRFQANPDYQMSGDDTQHIQQFYDLLTGSMEIIRGWAEKIPGFADLPKADQDLLFESAFLELFVLRLAYRSNPVEGKLIFCNGVVLHRLQCVRGFGEWIDSIVEFSSNLQNMNIDISAFSCIAALAMVTERHGLKEPKRVEELQNKIVNCLKDHVTFNNGGLNRPNYLSKLLGKLPELRTLCTQGLQRIFYLKLEDLVPPPAIIDKLFLDTLPF
B4: hMR: Mineralocorticoid Receptor (NR3C2, MR), cDNA driver (protein, UniProt P08235 1-984, looked up)
Mineralocorticoid receptor: METKGYHSLPEGLDMERRWGQVSQAVERSSLGPTERTDENNYMEIVNVSCVSGAIPNNSTQGSSKEKQELLPCLQQDNNRPGILTSDIKTELESKELSATVAESMGLYMDSVRDADYSYEQQNQQGSMSPAKIYQNVEQLVKFYKGNGHRPSTLSCVNTPLRSFMSDSGSSVNGGVMRAVVKSPIMCHEKSPSVCSPLNMTSSVCSPAGINSVSSTTASFGSFPVHSPITQGTPLTCSPNVENRGSRSHSPAHASNVGSPLSSPLSSMKSSISSPPSHCSVKSPVSSPNNVTLRSSVSSPANINNSRCSVSSPSNTNNRSTLSSPAASTVGSICSPVNNAFSYTASGTSAGSSTLRDVVPSPDTQEKGAQEVPFPKTEEVESAISNGVTGQLNIVQYIKPEPDGAFSSSCLGGNSKINSDSSFSVPIKQESTKHSCSGTSFKGNPTVNPFPFMDGSYFSFMDDKDYYSLSGILGPPVPGFDGNCEGSGFPVGIKQEPDDGSYYPEASIPSSAIVGVNSGGQSFHYRIGAQGTISLSRSARDQSFQHLSSFPPVNTLVESWKSHGDLSSRRSDGYPVLEYIPENVSSSTLRSVSTGSSRPSKICLVCGDEASGCHYGVVTCGSCKVFFKRAVEGQHNYLCAGRNDCIIDKIRRKNCPACRLQKCLQAGMNLGARKSKKLGKLKGIHEEQPQQQQPPPPPPPPQSPEEGTTYIAPAKEPSVNTALVPQLSTISRALTPSPVMVLENIEPEIVYAGYDSSKPDTAENLLSTLNRLAGKQMIQVVKWAKVLPGFKNLPLEDQITLIQYSWMCLSSFALSWRSYKHTNSQFLYFAPDLVFNEEKMHQSAMYELCQGMHQISLQFVRLQLTFEEYTIMKVLLLLSTIPKDGLKSQAAFEEMRTNYIKELRKMVTKCPNNSGQSWQRFYQLTKLLDSMHDLVSDLLEFCFYTFRESHALKVEFPAMLVEIISDQLPKVESGNAKPLYFHRK

Columns and labels:
mPer1 promoter = experiment: NHR-promoter luciferase screen, mPer1 promoter; format: cell-based, mouse; details: for Luc. act., normalized to lacZ / Normalized Luc. act., normalized to control: Per1 promoter reporter, co-transfected HR, with or without its ligand; for Normalized Luc. act., normalized to control: relative to control; for luciferase activity normalized to lacZ activity and to a control, mPer1: mPer1 promoter-luciferase, CV-1 cells, NHR +/- ligand, control = 1.00
Outline: (§1)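 CV-1 cells were co-transfected with 50 ng NHR (homodimer or NHR/RXR heterodimer), 100 ng promoter-luciferase construct and 50 ng LacZ. Luciferase was normalized to LacZ and to a no-NHR/no-ligand control.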

mUCP3 promoter = experiment: NHR-promoter luciferase screen, mUCP3 promoter; format: cell-based, mouse; details: for Normalized Luc. act., normalized to control / Luc. act., normalized to lacZ: mUCP3 promoter reporter; for Normalized Luc. act., normalized to control: HR without or with its ligand, relative to control; for Luc. act., normalized to lacZ: hormone receptor (HR) without or with its ligand; for mUCP3 promoter reporter activity: transcription factor +/- ligand, control = 1.00
Outline: as §1

hMDR1 promoter = experiment: NHR-promoter luciferase screen, hMDR1 promoter; format: cell-based, human; details: for Luc. act., normalized to lacZ / Normalized Luc. act., normalized to control: MDR1 promoter, HR/ligand component; for hMDR1 promoter reporter activity: transcription factor +/- ligand, control = 1.00
Outline: as §1

mUCP1 promoter = experiment: NHR-promoter luciferase screen, mUCP1 promoter; format: cell-based, mouse; details: for Luc. act., normalized to lacZ / Normalized Luc. act., normalized to control: mUCP1 promoter reporter, co-transfected HR, with or without its ligand; for Normalized Luc. act., normalized to control: relative to control; for luciferase activity normalized to lacZ activity and to a control, mUCP!: mUCP! promoter-luciferase, CV-1 cells, NHR +/- ligand, control = 1.00
Outline: as §1

mLeptin promoter = experiment: NHR-promoter luciferase screen, mLeptin promoter; format: cell-based, mouse; details: for Luc. act., normalized to lacZ / Normalized Luc. act., normalized to control: Table 7, mLeptin; for Results of assays of transcription factor (+/- ligand) with mLeptin: Table 6d, luciferase activity relative to control (control = 1.00)
Outline: as §1

hTNFa promoter = experiment: NHR-promoter luciferase screen, hTNFa promoter; format: cell-based, human; details: for Luc. act., normalized to lacZ / Normalized Luc. act., normalized to control: TNFa promoter, HR component without or with ligand; for hTNFa promoter reporter activity: transcription factor +/- ligand, control = 1.00
Outline: as §1

Molecule	Luc. act., normalized to lacZ (mPer1 promoter)	Normalized Luc. act., normalized to control (mPer1 promoter)	luciferase activity normalized to lacZ activity and to a control, mPer1 (mPer1 promoter)	Normalized Luc. act., normalized to control (mUCP3 promoter)	Luc. act., normalized to lacZ (mUCP3 promoter)	mUCP3 promoter reporter activity (mUCP3 promoter)	Luc. act., normalized to lacZ (hMDR1 promoter)	Normalized Luc. act., normalized to control (hMDR1 promoter)	hMDR1 promoter reporter activity (hMDR1 promoter)	Luc. act., normalized to lacZ (mUCP1 promoter)	Normalized Luc. act., normalized to control (mUCP1 promoter)	luciferase activity normalized to lacZ activity and to a control, mUCP! (mUCP1 promoter)	Luc. act., normalized to lacZ (mLeptin promoter)	Normalized Luc. act., normalized to control (mLeptin promoter)	Results of assays of transcription factor (+/- ligand) with mLeptin (mLeptin promoter)	Luc. act., normalized to lacZ (hTNFa promoter)	Normalized Luc. act., normalized to control (hTNFa promoter)	hTNFa promoter reporter activity (hTNFa promoter)
B1	139.6	1.0	0.97	1.2	0.81	1.19	0.2	0.7	0.65	3.8	0.9	0.86	1.8	0.6	0.62	691.0	0.7	0.70
B2	207.4	1.4	1.44	1.3	0.86	1.27	0.4	1.3	1.35	5.4	1.2	1.21	2.2	0.8	0.76	1214.8	1.2	1.24
B3	155.3	1.1	1.08	1.0	0.68	1.01	0.2	0.7	0.74	4.4	1.0	0.99	2.1	0.7	0.71	735.5	0.7	0.75
B4	351.9	2.4	2.44	0.7	0.50	0.74	0.1	0.3	0.34	2.1	0.5	0.48	1.7	0.6	0.57	614.3	0.6	0.62
